Holding throughout (assay): enzyme inhibition
Assay [1] deals with T1, human plasma kallikrein (human, UniProt P03952 20-638).
The target of a further assay is T2, human factor Xa (human, UniProt P00742 41-179; P00742 235-488).
T2 chain 1: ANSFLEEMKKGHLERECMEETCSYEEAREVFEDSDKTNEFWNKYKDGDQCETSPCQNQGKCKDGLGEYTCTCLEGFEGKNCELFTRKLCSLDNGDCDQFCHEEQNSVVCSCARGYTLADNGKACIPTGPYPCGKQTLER
T2 chain 2: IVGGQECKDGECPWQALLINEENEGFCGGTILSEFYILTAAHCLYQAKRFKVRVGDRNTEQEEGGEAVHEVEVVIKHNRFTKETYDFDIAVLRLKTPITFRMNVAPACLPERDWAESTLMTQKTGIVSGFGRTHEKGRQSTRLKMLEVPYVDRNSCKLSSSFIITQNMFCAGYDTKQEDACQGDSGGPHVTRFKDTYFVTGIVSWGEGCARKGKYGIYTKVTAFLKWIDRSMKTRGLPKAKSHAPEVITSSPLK

Assay [2] concerns the target T3, human factor XIIa (human, UniProt P00748 20-615, biotinylated with Biotin Ester (Zymed); sites not stated).
T3 chain: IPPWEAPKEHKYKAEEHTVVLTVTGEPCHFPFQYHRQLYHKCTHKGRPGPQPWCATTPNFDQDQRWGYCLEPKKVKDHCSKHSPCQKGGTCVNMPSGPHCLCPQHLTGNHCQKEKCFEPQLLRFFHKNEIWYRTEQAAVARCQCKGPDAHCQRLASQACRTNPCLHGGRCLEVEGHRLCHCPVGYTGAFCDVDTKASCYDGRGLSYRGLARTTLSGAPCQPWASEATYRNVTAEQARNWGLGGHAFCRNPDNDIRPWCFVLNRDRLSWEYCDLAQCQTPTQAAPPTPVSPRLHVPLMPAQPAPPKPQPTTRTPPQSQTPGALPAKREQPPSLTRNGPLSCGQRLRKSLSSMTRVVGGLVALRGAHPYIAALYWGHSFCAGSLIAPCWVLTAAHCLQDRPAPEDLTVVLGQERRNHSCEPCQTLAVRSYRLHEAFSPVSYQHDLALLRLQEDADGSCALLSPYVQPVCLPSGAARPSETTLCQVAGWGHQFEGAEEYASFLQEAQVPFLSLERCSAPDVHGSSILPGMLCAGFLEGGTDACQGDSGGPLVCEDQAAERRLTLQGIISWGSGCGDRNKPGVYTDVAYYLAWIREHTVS

The target in assay [3] is T1, human plasma kallikrein. This is another data set of the same source.
Assay [4] deals with T3, human factor XIIa.
Assay [5] concerns the target T1, human plasma kallikrein. The source holds these as a separate data set.
For assay [6], the target named is T1, human plasma kallikrein. This is another data set of the same source.
For assay [7], the target named is T3, human factor XIIa.

Where two headings read alike, the source gives them in different places.

T1 sequence (P03952 20-638): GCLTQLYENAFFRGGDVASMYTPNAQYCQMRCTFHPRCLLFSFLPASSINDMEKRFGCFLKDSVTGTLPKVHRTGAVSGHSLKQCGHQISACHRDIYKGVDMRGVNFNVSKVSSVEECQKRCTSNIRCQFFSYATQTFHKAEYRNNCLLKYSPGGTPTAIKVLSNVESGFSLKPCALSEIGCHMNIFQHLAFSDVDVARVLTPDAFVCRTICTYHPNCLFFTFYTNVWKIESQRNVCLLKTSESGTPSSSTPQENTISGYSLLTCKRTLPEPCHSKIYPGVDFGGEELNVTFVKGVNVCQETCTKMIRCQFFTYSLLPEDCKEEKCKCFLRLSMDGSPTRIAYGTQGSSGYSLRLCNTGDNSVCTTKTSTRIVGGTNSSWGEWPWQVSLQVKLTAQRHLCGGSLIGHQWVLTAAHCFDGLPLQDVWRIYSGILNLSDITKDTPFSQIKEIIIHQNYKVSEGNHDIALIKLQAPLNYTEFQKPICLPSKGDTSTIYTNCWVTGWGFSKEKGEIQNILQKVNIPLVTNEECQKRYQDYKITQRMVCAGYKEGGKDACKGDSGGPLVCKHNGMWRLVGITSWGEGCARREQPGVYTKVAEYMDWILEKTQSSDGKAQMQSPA

B1: TW6163 (protein)
chain: EVVREVCSEQAETGPCRAMHSRWYFDVTEGKCAPFFYGGCGGNRNNFDTEEYCMAVCGSAI
One may read the Ki as a dissociation constant, usually derived from enzyme kinetics or from competition with a known ligand. Read a high Ki as lower affinity. Consider B1, for which the Ki worked out at 4.7 nM with human plasma kallikrein [1], 457 nM with human factor Xa and 4530 nM with human factor XIIa [2].

B2: TW6140 (protein)
chain: EVVREVCSEQAETGPCRAMISRWYFDVTEGKCAPFFYGGCNGNRNNFDTEEYCMAVCGSAI
For the molecule B2, the Ki is 35 nM with human plasma kallikrein [3] and 475 nM with human factor XIIa [4].

B3: DD103 (protein)
chain: EVVREVCSEQAETGPCRAMIFRWYFDVTEGKCAPFFYGGCGGNRNNFDTEEYCMAVCGSAI
As to B3, the Ki with human plasma kallikrein [1] stood at 17 nM; in the assay with human factor Xa, 110 nM; with human factor XIIa [2] it was 2130 nM.

B4: TW6210 (protein)
chain: EVVREVCSEQAETGPCRAMIQRWYFDVTEGKCAPFFYGGCGGNRNNFDTEEYCMAVCGSAI
Turning to B4, the Ki with human plasma kallikrein [1] was 54 nM; in the assay with human factor XIIa [2] it was 277 nM.

B5: TW6181 (protein)
chain: EVVREVCSEQAETGPCRAMKSRWYFDVTEGKCAPFFYGGCGGNRNNFDTEEYCMAVCGSAI
Consider B5, for which the values for the Ki with human plasma kallikrein [1] and with human factor XIIa [2] were 150 nM and 1510 nM, respectively.

B6: DD111 (protein)
chain: EVVREVCSEQAETGPCRASISRWYFDVTEGKCAPFFYGGCGGNRNNFDTEEYCMAVCGSAI
For the molecule B6, the Ki with human plasma kallikrein [5] was 5.6 nM.

B7: TW6148 (protein)
chain: EVVREVCSEQAETGPCRAMISRWYFDVTEGKCAPFFYGGCGGARNNFDTEEYCMAVCGSAI
As for B7, in the assay with human plasma kallikrein [6], the Ki worked out at 40 nM.

B8: BG001 (protein)
chain: EVVREVCSEQAETGPCRAMLSRWYFDVTEGKCAPFFYGGCGGNRNNFDTEEYCMAVCGSAI
As to B8, the inhibition constant Ki with human plasma kallikrein [1] worked out at 38 nM; with human factor Xa it was 204 nM; in the assay with human factor XIIa [2] it was 489 nM.

B9: TW6158 (protein)
chain: EVVREVCSEQAETGPCRAMISRWYFDVTEGKCAPFFYGGCTGNRNNFDTEEYCMAVCGSAI
B9 showed a Ki with human plasma kallikrein [3] of 29 nM.

B10: TW6180 (protein)
chain: EVVREVCSEQAETGPCRAMFSRWYFDVTEGKCAPFFYGGCGGNRNNFDTEEYCMAVCGSAI
Consider B10, for which the Ki with human plasma kallikrein [1] is 70 nM; with human factor Xa it was 39 nM; with human factor XIIa [2], 885 nM.

B11: DD105 (protein)
chain: EVVREVCSEQAETGPCRAMIWRWYFDVTEGKCAPFFYGGCGGNRNNFDTEEYCMAVCGSAI
Turning to B11, the Ki with human plasma kallikrein [1] stood at 18 nM; with human factor Xa it was 320 nM; in the assay with human factor XIIa [2], 198 nM.

B12: DD104 (protein)
chain: EVVREVCSEQAETGPCRAMIYRWYFDVTEGKCAPFFYGGCGGNRNNFDTEEYCMAVCGSAI
As to B12, the figures for the inhibition constant Ki with human plasma kallikrein [1], with human factor Xa and in the assay with human factor XIIa [2] were 15 nM, 345 nM and 237 nM, respectively.

B13: CL006 (protein)
chain: EVVREVCSEQAETGPCRAMISAWYFDVTEGKCAPFFYGGCGGNRNNFDTEEYCMAVCGSAI
For the molecule B13, the figures for the Ki with human plasma kallikrein [1], with human factor Xa and in the assay with human factor XIIa [2] were 110 nM, 133 nM and 89600 nM, respectively.

B14: TW6182 (protein)
chain: EVVREVCSEQAETGPCRAMIHRWYFDVTEGKCAPFFYGGCGGNRNNFDTEEYCMAVCGSAI
Regarding B14, the Ki turned out to be 36 nM in the assay with human plasma kallikrein [1] and 752 nM with human factor XIIa [2].

B15: TW6149 (protein)
chain: EVVREVCSEQAETGPCRAMISRWYFDVTEGKCAPFFYGGCGGNANNFDTEEYCMAVCGSAI
The molecule B15 gave a Ki with human plasma kallikrein [6] of 54 nM.

B16: TW6165 (protein)
chain: EVVREVCSEQAETGPCRAAIWRWYFDVTEGKCAPFFYGGCGGNRNNFDTEEYCMAVCGSAI
In the case of B16, the Ki with human factor XIIa [7] is 206 nM.

B17: BG028 (protein)
chain: EVVREVCSEQAETGPCRALIYRWYFDVTEGKCAPFFYGGCGGNRNNFDTEEYCMAVCGSAI
In the assay with human factor XIIa [7], B17 registered a Ki of 93.8 nM.

B18: TW6166 (protein)
chain: EVVREVCSEQAETGPCRAAIYRWYFDVTEGKCAPFFYGGCGGNRNNFDTEEYCMAVCGSAI
In turn, B18 registered a Ki in the assay with human factor XIIa [7] of 73 nM.

B19: DD102 (protein)
chain: EVVREVCSEQAETGPCRAMIPRWYFDVTEGKCAPFFYGGCGGNRNNFDTEEYCMAVCGSAI
As for B19, the Ki with human plasma kallikrein [1] is 16 nM; with human factor XIIa [2], 315 nM.

B20: TW6172 (protein)
chain: EVVREVCSEQAETGPCRAMASRWYFDVTEGKCAPFFYGGCGGNRNNFDTEEYCMAVCGSAI
As for B20, the Ki with human plasma kallikrein [1] was 315 nM; with human factor Xa it was 1460 nM.

B21: TW6194 (protein)
chain: EVVREVCSEQAETGPCRAMIERWYFDVTEGKCAPFFYGGCGGNRNNFDTEEYCMAVCGSAI
With B21, in the assay with human plasma kallikrein [1], the Ki came to 70.8 nM.

B22: BG012 (protein)
chain: EVVREVCSEQAETGPCRAMISTWYFDVTEGKCAPFFYGGCGGNRNNFDTEEYCMAVCGSAI
Consider B22, for which the Ki in the assay with human factor Xa stood at 116 nM; with human factor XIIa [2], 40 nM.

B23: TW6141 (protein)
chain: EVVREVCSEQAETGPCRAMISRWYFDVTEGKCAPFFYGGCQGNRNNFDTEEYCMAVCGSAI
Consider B23, for which, in the assay with human plasma kallikrein [3], the Ki came to 42 nM.

B24: TW6168 (protein)
chain: EVVREVCSEQAETGPCRAMILRWYFDVTEGKCAPFFYGGCGGNRNNFDTEEYCMAVCGSAI
Consider B24, for which the results for the Ki with human plasma kallikrein [1], with human factor Xa and in the assay with human factor XIIa [2] were 25.8 nM, 395 nM and 3520 nM, respectively.

B25: DD100 (protein)
chain: EVVREVCSEQAETGPCRAMISRWYFDVTEGKCAPFFYGGCCGNRNNFDTEEYCMAVCGSAI
In the assay with human plasma kallikrein [3], B25 gave a Ki of 15 nM.

B26: TW116 (protein)
chain: EVCSEQAETGPCRAMIIRWYFDVTEGKCAPFFYGGCGGNRNNFDTEEYCMAVCGSAI
Consider B26, for which the Ki in the assay with human plasma kallikrein [1] was determined as 145 nM; with human factor Xa it was 806 nM.

B27: TW106 (protein)
chain: EVCSEQAETGPCRARISRWYFDVTEGKCAPFFYGGCGGNRNNFDTEEYCMAVCGSAI
The molecule B27 had a Ki in the assay with human plasma kallikrein [5] of 560 nM.

B28: TW124 (protein)
chain: EVCSEQAETGPCRAMISRWYFDVTEGKCAPFFYGGCGGNSNNFDTEEYCMAVCGSAI
For the molecule B28, the Ki with human plasma kallikrein [6] amounted to 64 nM.

B29: TW101 (protein)
chain: EVCSEQAETGPCKAMISRWYFDVTEGKCAPFFYGGCGGNRNNFDTEEYCMAVCGSAI
On to B29, for which, in the assay with human plasma kallikrein [5], the affinity corresponds to a Ki of 2000 nM.

The values are drawn from US6906033 (dated 2005).
